First the molecules themselves.
B1: Porcine Kobuvirus GS2 (nucleic acid, listed as Kobuvirus sp.)
DNA: TTTGAAAAGGGGGTGGGGGGGCCTCGGCCCCCTCACCCTCTTTTCCGGTGGCCATTCGCCCGGGCCACCGTTACTCCACTCCACTCCTTCGGGACTGGTTTGGAGGAACACAACAGGGCTTCCCATCCCTGTTTACCCTTTATTCCATCATCCTTTCCCCAAGTTTACCCTATCCACACCCCACTGACTGACTCCTTTGGATTTTGACCTCAGAATGCCTATTTGACCTCCCACTCGCCTCTCCCTTTTCGGATTGCCGGTGGTGCCTGGCGGAAAAAGCACAAGTGTGTTGCAGGCTACCAAACTCCTACCCGACAAAGGTGCGTGTCCGCGTGCTGAGTAATGGGATAGGAGATGCCTACAACAGGCTCGCCCATGAGTAGAGCATGGACTGCGGTGCATGTGACTTCGGTCACCACGGGCATAGCATTGCTCACCCGTGAATCAAGTCATCGAGATTTCTCTGACCTCTGAAGTGCACTGTGGTTGCGTGGCTGGGAATCCACGCTTGACCATGTACTGCTTGATAGAGTCGCGGCTGGCCGACTCATGGGTTAAAGTCAGTTGACAAGACAC
modifications: lipid formulation
B2: TRV NGS910 (nucleic acid)
DNA: ATGCGACGTGGTTGGAGATTAAACCGACTCCGACGAAAGTGCTATCATGCCTCCCCGATTATGTGATGTTTTCTGCCCTGCTGGGCGGAGCATTCTCGGGTTGATACACCTTGAATCCTTCATCCTTGGACCTCAGGTCCCCCGGTCTAAGCCGCTTGGAATACGACAGGGTTATTTTCCAATCTTCTCCTTTCTACTTTCATGAGTCCTATTCATGAAAAGGGTCTGTGCTGCCCCTTCCTTCTTGGAGAATCTGCGCGGCGGTCTTTCCGTCTCTCGAAAAGCGCAGATGCAGCATGCTGGAACCGGTGAAGAAAACAGTTCTTTGTGGAAACTTAGAGCAGACATCGAAACAGCTGTAGTGACCTCACAGTAGCAGCGGAACCCCCTCCTGGTAACAGGAGCCTCTGCGGCCAAAAGCCCCGTGGATAAGATCCACTGCTGTGAGCGGTGCAACCCCAGCACCCTGGTTCGATGGTTGTTCTCTGTGGAACCAGAGAATGGTCTTTCTCAAGCCCTCCAGTAGAGAAGCCAAGAATGTCCTGAAGGTACCCCGCATGCGGGATCTGATCAGGAGACCAATCGTCAGTGCTTTACACTGGCGCTTTGGTTTAAAAACTGTCACAGCTTCTCCAAACCAAGTGGTCTTGGTTTTCACTTTTATCAAACTGTTTC
modifications: lipid formulation; source: /note="Description of Unknown: TRV NGS910 sequence"
B3: Human pegivirus isolate JD2B1I (nucleic acid, listed as Pegivirus sp.)
DNA: TCAGGGTTGGTAGGTCGTAAATCCCGGTCACCTTGGTAGCCACTATAGGTGGGTCTTAAGAGAAGGTTAAGATTCCTCTTGTGCCTGCGGCGAGACCGCGCACGGTCCACAGGTGTTGGCCCTACCGGTGGGAATAAGGGCCCGACGTCAGGCTCGTCGTTAAACCGAGCCCGTCACCCACCTGGGCAAACGACGCCCACGTACGGTCCACGTCGCCCTTCA
B4: Aichivirus Rt386 (nucleic acid, listed as Aichivirus sp.)
DNA: ACTCCATTCAGCTTCTTCGGAACCTGTTCGGAGGAATTAAACGGGCACCCACTTTCCTGTCCTCTCCCCCTTTCTGCAACTCAAGTGTGTGCTCGTAATCCTGACTCCCACGGGTTGACCGCCCCGTTGGTGAACAAACAGCTAGGTCATTCCCTCCCTACCCCTGGGCGCCATTTCAGTGGCGTTCATATCCTCCCCCCAGCCTGACGTGTCACAGGCTGTGCAAAGTCCCCGCGAAAGCTGCTCACGTGGCAATTGTGGGTCCCCCCTTTGTGAAGGAACCGAGTCTTTCTCCCTTAAGGCTAGACCCCTGTGTGAACTCACAGGTGGCAACTAGTGGTTCCACTGCATGCTCCCGACCTCGGCCGCGGAGTGCTGTTCCCCAAGTCGTGACACTGACCTCCACTTATGTGCCTGGCAAGCATATCTGAGAAGATGTTCCGCTGTGGCTGCCAAACCTGGTAACAGGTGCCCCAGTGCGTGTAGTCTTCTTCCGTCTCCGGACGGTAAGTGTGTGGTAAAGATGCGGCGTAAGGTTCAAGTGCCAACGCCCTGGAAGGGATGACCCTTCTACTGCCCTAGGAATGCCGCGCAGGTACCCCAGGTTCGCCTGGGATCTGAGCGCGGGCTAATTGTCTACGGGTAGTTTCATTTCCCTCTCTTTTCACTGGCATC
B5: Tottorivirus (nucleic acid, listed as Tottorivirus sp.)
DNA: CCCCTTTACGTAACTGCAACTTAAAGAGTACCCTACTGCATTGGATGTGTGGTAAACTTTTACGCACACATTTGTAGTAGTGTTAGTTATGTTCTACCTAATGAGTATGCATGCACCCGTCGAAACACGCTTGTGATAAGATAGGTGAGTCCATGTGACTAATCTCATTAAGATAAATAAGCACCCTACAACGCACGGCACGCTCGTGTCTTCCGTGCGGGGCCGGGACAACAGCGGCCTAAATCTTCTAGGTGACCACCATGCTTTTGGGACTATGGCACCACTGTGGACGTGAGTACCTGGCAGTAAGTCTGTGAAAAGATGGAAGGTGTCCCAAGCTATGGGGCGTATGCATATAGCCTGCGGAACAAACAACGGCGACGTTGTCCCCAGGGCCCAAAAGGCACGTGGATAAGATCCACCTATATGTTTACCCCATAGTGTAAGTCACTGGAAGTCCTAGTAATGGATGTCTGGAGTAAGGCTCACGGGGTAGGGCGAAGGATGCCCAGAAGGTACCCGTAGGTAACCTTAAGAGACTATGGATCTGATCTGGGGACCGGATGGCGCCATCACCATGACGTGGAGGCCGGTTTAAAAAACGTCTAAGCCCGACCAACAACCTAGGGGACTAGGTTTTCCTTTTTTATTCATGTATGACGTT
B6: 18-675 (nucleic acid)
DNA: CCCACAGCAAGAATGCCATCATCTGTCCTCACCCCCAATTTTCCCTTTTCTTCCCCTGCAACCATTACGCTTACTCGCATGTGCATTGAGTGGTGCATGTGTTGAACAAACAGCTACACTCACATGGGGGCGGGTTTTCCCGCCCTACGGCCTCTCGCGAGGCCCACCCCTTCCCTCCCCTTATAACTACAGTGCTTTGGTAGGTAAGCATCCTGATCCCCCGCGGAAGCTGCTCACGTGGCAACTGTGGGGACCCAGACAGGTTATCAAAGGCACCCGGTCTTTCCGCCTTCAGGAGTATCCCTACTAGTGAATTCTAGCGGGGCTCTGCTTGGTGCCAACCTCCCCCAAATGCGCGCTGCGGGAGTGCTCTTCCCCAACTCACCCTAGTATCCTCTCATGTGTGTGCTTGGTCAGCATATCTGAGACGATGTTCCGCTGTCCCAGACCAGTCCAGTAATGGACGGGCCAGTGCGTGTAGTCGTCTTCCGGCTTGTCCGGGGCATGTTTGGTGAACCGGTGGGGTAAGGTTGGTGTGCCCAACGCCCGTACTTTGGTGACACCTCAAGACCACCCAGGAATGCCAGGGAGGTACCCCACCTCACGGTGGGATCTGACCCTGGGCTAATTGTCTACGGTGGTTCTTCTTGCTTCCACTTCTTTCTTCTGTTCACG
modifications: source: /note="Description of Unknown: 18-675 sequence"
B7: Symapivirus A (nucleic acid)
DNA: TTGGGAAATCCCCAATGCTTCTTTCAACACCGCCTGACTATGCGGTGGCGCTTCGGCTCAAACAACTAGTCACTTCCCCCTCTTAACTACTACCCAAGACTTCTAACTACCCTTACCTACTTATTTGTCTAAATTTCAAACTTTTATTCTCACGCGTCTTATAAACATCTTTTCTATTTGTTATGGTATGTTTTGTGATTTGTGTGGTGTATTTCATTTAATGGGATCTAGTGGACCGTGCCCCGGTTGGGTATCCGCTCCCTTTAAATGTTTGCAAGCACTCTTGACATTATAACCTATCATTTAGTTTACTTGTTTGTATGATCGTATTTCTGAATCGTAACATTTATGCAATTCTTTCTCGCCGAGACTTGTCTAGGAGATAAAGTTCCTGCATATTTAGTGTTACGGTTGTATAATGGAGACTTAGATAGCTTCACACTGAGGACGCTTTTTCGCTATCCTTTTGACCTGATTCAGGCCAGTGTGGAGTTAATGATTGTATGGATGGGCCCTACAATTTGTCTAAGACTTGGTGATAGCCTCGCGGCCGCTCGCCATTTATACAACTGAATAGCGGTTGAAACTCTCT
modifications: Symapivirus A
B8: A73-675 (nucleic acid)
DNA: TTACTCCATTCAGCTTCTTCGGAACCTGTTCGGAGGAATTAAACGGGCACCCATACTCCCCCCACCCCCCTTTTGTAACTAAGTATGTGTGCTCGTGATCTTGACTCCCACGGAACGGACCGATCCGTTGGTGAACAAACAGCTAGGTCCACATCCTCCCTTCCCCTGGGAGGGCCCCCGCCCTCCCACATCCTCCCCCCAGCCTGACGTATCACAGGCTGTGTGAAGCCCCCGCGAAAGCTGCTCACGTGGCAATTGTGGGTCCCCCCTTCATCAAGACACCAGGTCTTTCCTCCTTAAGGCTAGCCCCGGCGTGTGAATTCACGTTGGGCAACTAGTGGTGTCACTGTGCGCTCCCAATCTCGGCCGCGGAGTGCTGTTCCCCAAGCCAAACCCCTGGCCCTTCACTATGTGCCTGGCAAGCATATCTGAGAAGGTGTTCCGCTGTGGCTGCCAACCTGGTGACAGGTGCCCCAGTGTGCGTAACCTTCTTCCGTCTCCGGACGGTAGTGATTGGTTAAGATTTGGTGTAAGGTTCATGTGCCAACGCCCTGTGCGGGATGAAACCTCTACTGCCCTAGGAATGCCAGGCAGGTACCCCACCTCCGGGTGGGATCTGAGCCTGGGCTAATTGTCTACGGGTAGTTTCATTTCCAATCCTTTTATGTCGGAGTC
modifications: source: /note="Description of Unknown: A73-675 sequence"
B9: Tropivirus A (nucleic acid)
DNA: TGTCGCATGTTGCCAACATCAAAATTCTGGGAGAGTCGCGAACTCCTTAACACTGCCTTGCCTCGACGGAGCCGTTGTTATAGTGTCGACGGGATACAAACATTAAACTAAACCCACTTGCCTCGACGGAACCCCTTACCTTTTATTTTATTTTATAGTATGAAAGTGAATCTTGTATGAATGTTCATAGAAAACTGCAAATGAGTACCACGTCTAACATGAGAGAATGATACTGGAGAAATCCAAGTTTAGAAGTCACTACGAATCCCAGCGGAAACAAGGGAATTCTGAGCTTCTAATAGGCGTTTAAGACTATTTGCAAAATTCTGGTGCGTAAGTGATATTTTCATTGCGTAGAACGCTGGTAACCACTCCGGCTAGTATAAGCATTGTTAGTCACTTATTATGAAACTCCACACTATCCTTTCTGGAGAAGCACACAAACTTACATGGTAAAGCTAGACCATTATCTTAAGCGGTGAGTACACTGCAACCTTGTAACAATGCTTGTATGACTACTTTTTGTATATCTTGAGCAATATTGTTGAGGTGGACATGTCCAAAGGTAATGTTGTTGGGAATGGAGGGGTCCATTTTCCCGTGCACGTAGTGTACTAGTATTGGGTGATAGCCTTGCGGCGGATCAACCATGTATTTTAATCCGTTGACTTTCAC
modifications: Tropivirus A

Results on 9 molecules are retold here after patent US20240245805A1 (Orna Therapeutics, Inc., priority 2020, published 2024).

This series has as its system HEK293 cells. It is filed as cell-based, human. Particulars: circular RNA encoding Gluc with the listed IRES (UTR truncated to 675 nt) transfected into HEK293 cells; supernatant after 24 hours.
With B1, the “Expression (luminescence from secreted Gluc protein)” value (from here on “Expression”) amounted to 44200000.

With B2, the “Expression” value is 3.84E+07.

As for B3, the “Expression” value is on record as 6.85E+05. As to B4, the “Expression” value stood at 5.71E+07.

For the molecule B5, the “Expression” value is 2.76E+07. For B6, the “Expression” value was 6.04E+07. B7: the “Expression” value stood at 1.27E+05. For B8, the “Expression” value is listed as 1.30E+08. In the case of B9 it was 9.52E+04.
